# Results: article PMC10113246
# Substitutions are numbered along the chain they refer to.
# Columns and labels:
# Assay in all cases: SPR
# Set-up in all cases: unit not given here
# Settings in all cases: SPR DBD-TD: 25 mM HEPES pH 7.5, 200 mM NaCl, 0.5 mM TCEP, 0.005% Tween-20, SPR DBD: 10 mM HEPES pH 7.5, 150 mM NaCl, 0.2 mM TCEP
# p63 DBD H208Y H247Y = biological target: T1, p63 DBD H208Y H247Y (UniProt Q9H3D4)
# T1 sequence: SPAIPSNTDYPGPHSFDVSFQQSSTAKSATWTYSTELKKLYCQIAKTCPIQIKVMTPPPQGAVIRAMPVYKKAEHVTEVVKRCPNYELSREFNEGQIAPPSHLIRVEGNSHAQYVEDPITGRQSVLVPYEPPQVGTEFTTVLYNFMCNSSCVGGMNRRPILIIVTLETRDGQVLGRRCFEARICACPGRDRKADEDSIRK
# p63 DBD I172A I211A = biological target: T2, p63 DBD I172A I211A (UniProt Q9H3D4)
# T2 sequence: T1 sequence with I50A, Y86H
# p63 DBD R204W R243W = biological target: T3, p63 DBD R204W R243W (UniProt Q9H3D4)
# T3 sequence: T1 sequence with R82W, Y86H
# p63 DBD R227Q R266Q = biological target: T4, p63 DBD R227Q R266Q (UniProt Q9H3D4)
# T4 sequence: T1 sequence with Y86H, R105Q
# p63 DBD R279H R318H = biological target: T5, p63 DBD R279H R318H (UniProt Q9H3D4)
# T5 sequence: T1 sequence with Y86H, R157H
# p63 DBD R280S R319S = biological target: T6, p63 DBD R280S R319S (UniProt Q9H3D4)
# T6 sequence: T1 sequence with Y86H, R158S
# p63 DBD R298Q R337Q = biological target: T7, p63 DBD R298Q R337Q (UniProt Q9H3D4)
# T7 sequence: T1 sequence with Y86H, R176Q
# p63 DBD R304W R343W = biological target: T8, p63 DBD R304W R343W (UniProt Q9H3D4)
# T8 sequence: T1 sequence with Y86H, R182W
# p63 DBD V202M V241M = biological target: T9, p63 DBD V202M V241M (UniProt Q9H3D4)
# T9 sequence: T1 sequence with V80M, Y86H
# p63 DBD WT = biological target: T10, p63 DBD WT (UniProt Q9H3D4)
# T10 sequence: T1 sequence with Y86H
# p63 DBD Y192C Y231C = biological target: T11, p63 DBD Y192C Y231C (UniProt Q9H3D4)
# T11 sequence: T1 sequence with Y70C, Y86H
# p63 DBD-TD K193E K232E = biological target: T12, p63 DBD-TD K193E K232E (UniProt Q9H3D4)
# T12 sequence: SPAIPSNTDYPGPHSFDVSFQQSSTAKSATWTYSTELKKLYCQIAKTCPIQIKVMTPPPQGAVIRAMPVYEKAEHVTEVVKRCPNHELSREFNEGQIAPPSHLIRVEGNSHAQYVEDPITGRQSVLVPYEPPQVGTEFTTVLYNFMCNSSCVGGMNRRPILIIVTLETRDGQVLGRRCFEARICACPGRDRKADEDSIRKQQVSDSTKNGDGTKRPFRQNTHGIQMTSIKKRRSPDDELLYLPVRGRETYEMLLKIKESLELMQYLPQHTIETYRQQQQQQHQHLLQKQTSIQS
# p63 DBD-TD R227Q R266Q = biological target: T13, p63 DBD-TD R227Q R266Q (UniProt Q9H3D4)
# T13 sequence: T12 sequence with E71K, R105Q
# p63 DBD-TD R280H R319H = biological target: T14, p63 DBD-TD R280H R319H (UniProt Q9H3D4)
# T14 sequence: T12 sequence with E71K, R158H
# p63 DBD-TD R280S R319S = biological target: T15, p63 DBD-TD R280S R319S (UniProt Q9H3D4)
# T15 sequence: T12 sequence with E71K, R158S
# p63 DBD-TD R298Q R337Q = biological target: T16, p63 DBD-TD R298Q R337Q (UniProt Q9H3D4)
# T16 sequence: T12 sequence with E71K, R176Q
# p63 DBD-TD R304W R343W = biological target: T17, p63 DBD-TD R304W R343W (UniProt Q9H3D4)
# T17 sequence: T12 sequence with E71K, R182W
# p63 DBD-TD WT = biological target: T18, p63 DBD-TD WT (UniProt Q9H3D4)
# T18 sequence: T12 sequence with E71K
Sequence,Kd (p63 DBD H208Y H247Y),Kd (p63 DBD I172A I211A),Kd (p63 DBD R204W R243W),Kd (p63 DBD R227Q R266Q),Kd (p63 DBD R279H R318H),Kd (p63 DBD R280S R319S),Kd (p63 DBD R298Q R337Q),Kd (p63 DBD R304W R343W),Kd (p63 DBD V202M V241M),Kd (p63 DBD WT),Kd (p63 DBD Y192C Y231C),Kd (p63 DBD-TD K193E K232E),Kd (p63 DBD-TD R227Q R266Q),Kd (p63 DBD-TD R280H R319H),Kd (p63 DBD-TD R280S R319S),Kd (p63 DBD-TD R298Q R337Q),Kd (p63 DBD-TD R304W R343W),Kd (p63 DBD-TD WT)
TTTTTTTTTTTAAACATGTTTAAACATGTTT / AAACATGTTTAAACATGTTT [20 bp p63 consensus sequence (SPR)],2060,33.7,510,120,202,351000,90.8,220,83300,30.4,1240,–,–,–,–,–,–,–
TTTTTTTTTTTGAACATGTCCCAACATGTTG / CAACATGTTGGGACATGTTC [p21 response element (SPR)],–,–,–,–,–,–,–,–,–,–,–,9920,515,1120,11800,435,27000,67.9
